{
  "source": "paper PMC8191316",
  "about": "“Structural basis for CD97 recognition of the decay-accelerating factor CD55 suggests mechanosensitive activation of adhesion GPCRs” (The Journal of Biological Chemistry, 2021)",
  "molecules": {"B1": {"name": "CD55 SCR1–4 domains (35–285), His-tagged (domain or fragment)", "chain": "DCGLPPDVPNAQPALEGRTSFPEDTVITYKCEESFVKIPGEKDSVICLKGSQWSDIEEFCNRSCEVPTRLNSASLKQPYITQNYFPVGTVVEYECRPGYRREPSLSPKLTCLQNLKWSTAVEFCKKKSCPNPGEIRNGQIDVPGGILFGATISFSCNTGYKLFGSTSSFCLISGSSVQWSDPLPECREIYCPAPPQIDNGIIQGERDHYGYRQSVTYACNKGFTMIGEHSIYCTVNNDEGEWSGPPPECRG"}, "B2": {"name": "EMR2 EGF_(1,2,5) (24–168) fragment, His6 removed (domain or fragment)", "chain": "QDSRGCARWCPQDSSCVNATACRCNPGFSSFSEIITTPMETCDDINECATLSKVSCGKFSDCWNTEGSYDCVCSPGYEPVSGAKTFKNESENTCQDVDECSSGQHQCDSSTVCFNTVGSYSCRCRPGWKPRHGIPNNQKDTVCED"}, "B3": {"name": "CD97 EGF_(1,2,5) fragment D63L, without His-tag (domain or fragment, human, UniProt P48960-2 21-165, looked up)", "chain": "B2 chain with D13N, M39T, D43L, L51P", "notes": "CD97, human, EGF_(1,2,5) isoform fragment, residues 21–165, with D63L; Made by overlapping PCR, cloned to the same vector as m3; not shown: His6, C-terminal, cleaved"}, "B4": {"name": "CD97 EGF_(1,2,5) fragment D81A, without His-tag (domain or fragment, human, UniProt P48960-2 21-165, looked up)", "chain": "B2 chain with D13N, M39T, L51P, D61A", "notes": "CD97, human, EGF_(1,2,5) isoform fragment, residues 21–165, with D81A; Made by overlapping PCR, cloned to the same vector as m3; not shown: His6, C-terminal, cleaved"}, "B5": {"name": "CD97 EGF_(1,2,5) fragment V137A, without His-tag (domain or fragment, human, UniProt P48960-2 21-165, looked up)", "chain": "B2 chain with D13N, M39T, L51P, V117A", "notes": "CD97, human, EGF_(1,2,5) isoform fragment, residues 21–165, with V137A (in EGF5); Made by overlapping PCR, cloned to the same vector as m3; also called V137A mutant; not shown: His6, C-terminal, cleaved"}, "B6": {"name": "CD97 EGF_(1,2,5) fragment E86A, without His-tag (domain or fragment, human, UniProt P48960-2 21-165, looked up)", "chain": "B2 chain with D13N, M39T, L51P, E66A", "notes": "CD97, human, EGF_(1,2,5) isoform fragment, residues 21–165, with E86A; Made by overlapping PCR, cloned to the same vector as m3; not shown: His6, C-terminal, cleaved"}},
  "key": {"[1]": {"target": "CD55 SCR1–4 domains (35–285), His-tagged (human) (UniProt P08174)", "experiment": "SPR; Biacore T200; His-tagged CD55 immobilized on nickel coated NTA chip; CD97 (WT, mutants) or EMR2 without His-tag injected at 50 μl/min for 2 min; 20 mM Tris, pH 7.5, 200 mM NaCl, 2 mM CaCl2, 0.05% Tween 20"}, "[2]": {"target": "T1, CD97 EGF_(1,2,5) fragment D81A, without His-tag (human, UniProt P48960-2 21-165, D81A)", "T1 sequence": "B2 chain with D13N, M39T, L51P, D61A", "experiment": "SPR"}, "[3]": {"target": "T2, CD97 EGF_(1,2,5) fragment E86A, without His-tag (human, UniProt P48960-2 21-165, E86A)", "T2 sequence": "B2 chain with D13N, M39T, L51P, E66A", "experiment": "SPR"}, "[4]": {"target": "T3, CD97 EGF_(1,2,5) fragment D63L, without His-tag (human, UniProt P48960-2 21-165, D63L)", "T3 sequence": "B2 chain with D13N, M39T, D43L, L51P", "experiment": "SPR"}, "[5]": {"target": "T4, CD97 EGF_(1,2,5) fragment V137A, without His-tag (human, UniProt P48960-2 21-165, V137A)", "T4 sequence": "B2 chain with D13N, M39T, L51P, V117A", "experiment": "SPR"}, "[6]": {"target": "B1", "experiment": "SPR"}, "[7]": {"target": "T5, CD55 SCR1–4 domains (35–285), His-tagged (human, UniProt P08174 35-285)", "T5 construct": "CD55 (complement decay-accelerating factor), human, UniProt P08174, SCR1–4 domains, residues 35–285; Vector pLEXm with N-terminal signal peptide; codon-optimized gene; In the crystal and SAXS rows it stood as the C-terminal part of the chimera m9; also called decay-accelerating factor; not shown: His6, C-terminal, kept", "T5 sequence (looked up)": "B1 chain", "experiment": "SPR; Biacore T200; His-tagged CD55 immobilized on nickel coated NTA chip; CD97 (WT, mutants) or EMR2 without His-tag injected at 50 μl/min for 2 min; 20 mM Tris, pH 7.5, 200 mM NaCl, 2 mM CaCl2, 0.05% Tween 20", "conditions": "both partners purified"}},
  "note": "Where a chain is given by its changes, count along the chain named. Numbers in names are those of the source.",
  "data": [
    {"molecule": "CD97 EGF_(1,2,5) fragment, WT, without His-tag (SPR construct with TEV site) (from UniProt P48960-2 21-165) (domain or fragment)", "values": [
      {"measurement": "Kd", "setting": "[1]", "value": 3.2, "unit": "µM"},
      {"measurement": "koff", "setting": "[1]", "value": 0.00173, "unit": "s⁻¹"},
      {"measurement": "kon", "setting": "[1]", "value": 546, "unit": "M⁻¹ s⁻¹"}
    ]},
    {"molecule": "B1", "values": [
      {"measurement": "koff", "setting": "[2]", "value": 0.00122, "unit": "s⁻¹"},
      {"measurement": "koff", "setting": "[3]", "value": 0.00141, "unit": "s⁻¹"},
      {"measurement": "koff", "setting": "[4]", "value": 0.000968, "unit": "s⁻¹"},
      {"measurement": "koff", "setting": "[5]", "value": 0.00163, "unit": "s⁻¹"}
    ]},
    {"molecule": "B2", "values": [
      {"measurement": "Kd", "setting": "[1]", "value": 43, "unit": "µM"},
      {"measurement": "koff", "setting": "[6]", "value": 0.00149, "unit": "s⁻¹"}
    ]},
    {"molecule": "B3", "values": [
      {"measurement": "Kd", "setting": "[7]", "value": 85.2, "unit": "µM"}
    ]},
    {"molecule": "B4", "values": [
      {"measurement": "Kd", "setting": "[7]", "value": 66.4, "unit": "µM"}
    ]},
    {"molecule": "B5", "values": [
      {"measurement": "Kd", "setting": "[7]", "value": 25.3, "unit": "µM"}
    ]},
    {"molecule": "B6", "values": [
      {"measurement": "Kd", "setting": "[7]", "value": 17.6, "unit": "µM"}
    ]}
  ]
}
